Source: patent US20150073033A1 (University of Texas, published 2015)
Values belong to the binder of their own block, whether it stands above or below them.

Experiments:
[1] = target: T1, purified recombinant GST-Bub1 (UniProt O43683 1-1085, limits assumed); experiment: GST pull-down, purified recombinant proteins
T1 construct: Bacterially purified; not shown: GST
Protocol: Nuclei were stained with DAPI (blue). […] A GST pull-down assay was performed.

[2] = target: endogenous Bub1 (human, UniProt O43683 1-1085); experiment: co-IP, HeLa cells
endogenous Bub1, sequence (O43683 whole entry): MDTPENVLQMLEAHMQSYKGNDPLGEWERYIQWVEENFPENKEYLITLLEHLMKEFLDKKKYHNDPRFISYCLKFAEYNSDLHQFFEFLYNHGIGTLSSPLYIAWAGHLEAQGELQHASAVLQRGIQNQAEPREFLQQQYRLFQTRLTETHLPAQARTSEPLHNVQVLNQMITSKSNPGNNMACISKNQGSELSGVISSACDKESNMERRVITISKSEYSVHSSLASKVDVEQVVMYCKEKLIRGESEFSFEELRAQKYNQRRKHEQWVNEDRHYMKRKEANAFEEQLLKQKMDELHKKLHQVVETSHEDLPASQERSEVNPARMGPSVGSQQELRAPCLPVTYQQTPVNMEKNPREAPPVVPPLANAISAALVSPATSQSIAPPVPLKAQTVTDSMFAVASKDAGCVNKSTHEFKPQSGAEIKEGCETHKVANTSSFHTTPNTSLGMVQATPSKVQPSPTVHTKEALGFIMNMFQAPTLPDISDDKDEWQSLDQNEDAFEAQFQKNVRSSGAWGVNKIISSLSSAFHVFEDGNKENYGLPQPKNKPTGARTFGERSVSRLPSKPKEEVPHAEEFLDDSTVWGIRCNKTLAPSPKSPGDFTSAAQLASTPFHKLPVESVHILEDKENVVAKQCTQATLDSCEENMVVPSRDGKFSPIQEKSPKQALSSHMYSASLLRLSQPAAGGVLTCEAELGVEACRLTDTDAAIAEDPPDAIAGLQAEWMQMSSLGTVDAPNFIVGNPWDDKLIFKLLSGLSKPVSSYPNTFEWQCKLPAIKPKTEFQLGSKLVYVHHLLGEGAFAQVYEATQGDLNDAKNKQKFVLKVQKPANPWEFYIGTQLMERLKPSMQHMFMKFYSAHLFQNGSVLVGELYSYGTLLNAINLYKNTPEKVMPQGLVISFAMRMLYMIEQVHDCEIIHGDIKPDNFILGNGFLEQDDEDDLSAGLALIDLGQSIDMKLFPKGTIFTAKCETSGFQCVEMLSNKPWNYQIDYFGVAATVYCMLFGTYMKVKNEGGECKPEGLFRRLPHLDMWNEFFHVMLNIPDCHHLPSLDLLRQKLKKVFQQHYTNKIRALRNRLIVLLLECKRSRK

[3] = target: T2, endogenous IKKβ (U87/EGFR or U251 cells) (human, UniProt O14920 1-756); experiment: IP of PKCζ, anti-IKKβ immunoblot, EGF-treated cells
T2 sequence (looked up): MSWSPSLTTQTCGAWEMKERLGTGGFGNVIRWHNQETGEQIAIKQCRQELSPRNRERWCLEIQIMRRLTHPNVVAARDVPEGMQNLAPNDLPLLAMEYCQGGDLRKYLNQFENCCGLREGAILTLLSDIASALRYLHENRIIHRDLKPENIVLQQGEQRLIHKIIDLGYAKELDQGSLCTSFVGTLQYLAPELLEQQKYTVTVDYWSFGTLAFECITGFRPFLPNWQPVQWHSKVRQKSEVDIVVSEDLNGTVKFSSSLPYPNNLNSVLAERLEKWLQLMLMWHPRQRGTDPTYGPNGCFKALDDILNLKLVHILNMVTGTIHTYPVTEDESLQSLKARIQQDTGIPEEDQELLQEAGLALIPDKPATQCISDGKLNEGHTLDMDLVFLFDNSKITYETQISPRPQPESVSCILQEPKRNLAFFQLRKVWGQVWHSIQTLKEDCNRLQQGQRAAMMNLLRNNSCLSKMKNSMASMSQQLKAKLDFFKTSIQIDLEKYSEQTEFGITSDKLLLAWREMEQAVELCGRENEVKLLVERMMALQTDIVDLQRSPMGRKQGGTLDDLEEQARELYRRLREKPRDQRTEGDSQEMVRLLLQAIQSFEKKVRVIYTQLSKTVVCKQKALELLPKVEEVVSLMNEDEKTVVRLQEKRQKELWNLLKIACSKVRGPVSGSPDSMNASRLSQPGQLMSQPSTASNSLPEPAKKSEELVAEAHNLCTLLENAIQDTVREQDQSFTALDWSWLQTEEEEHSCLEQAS

T1 sequence (O43683 whole entry): as the sequence (O43683 whole entry) above

- binding result [1]: no binding
B1: purified recombinant His-PKM2 (wild type) (enzyme)
chain: not shown
notes: Expressed in bacteria and purified; unphosphorylated; also called WT PKM2; WT His-PKM2

- binding result [2]: no binding
B2: endogenous PKM1 (enzyme)
chain: not shown
notes: Looked for in Bub3-Bub1 immunoprecipitates

- binding result [3]: no binding
B3: endogenous PKCζ (enzyme, human, UniProt Q05513 1-592, looked up)
chain: MPSRTGPKMEGSGGRVRLKAHYGGDIFITSVDAATTFEELCEEVRDMCRLHQQHPLTLKWVDSEGDPCTVSSQMELEEAFRLARQCRDEGLIIHVFPSTPEQPGLPCPGEDKSIYRRGARRWRKLYRANGHLFQAKRFNRRAYCGQCSERIWGLARQGYRCINCKLLVHKRCHGLVPLTCRKHMDSVMPSQEPPVDDKNEDADLPSEETDGIAYISSSRKHDSIKDDSEDLKPVIDGMDGIKISQGLGLQDFDLIRVIGRGSYAKVLLVRLKKNDQIYAMKVVKKELVHDDEDIDWVQTEKHVFEQASSNPFLVGLHSCFQTTSRLFLVIEYVNGGDLMFHMQRQRKLPEEHARFYAAEICIALNFLHERGIIYRDLKLDNVLLDADGHIKLTDYGMCKEGLGPGDTTSTFCGTPNYIAPEILRGEEYGFSVDWWALGVLMFEMMAGRSPFDIITDNPDMNTEDYLFQVILEKPIRIPRFLSVKASHVLKGFLNKDPKERLGCRPQTGFSDIKSHAFFRSIDWDLLEKKQALPPFQPQITDDYGLDNFDTQFTSEPVQLTPDDEDAIKRIDQSEFEGFEYINPLLLSTEESV
